Laboratory results: a protein production outcome set (Wang et al. 2014)

Test: label from the status in PepcDB records

Row | Sequence | protein production
1 | MREALRSLLVALQFLTRLPVRLSAMPTPEQFGRAVLCYPLVGVLIGVVLYAAARSLDGTPPLLQAALLLSLWVALSGALHLDGLADMADAWVGGLGDRERTLAIMKDPRSGPVAVVVLVLVLLLKFSALAALLGQGEAGLLPLAPWLARSSLPLLFLTTPYARPGGLGQAIAEHLPARSLPWVLGVSFGLALAFGLAGLLALLVTLMLFAWLRSRFLARLGGTTGDTAGALVELTECAVLVALAL | failed
2 | MQGHHFGGDMSNSEAIDNTTAKLRLAQSSSLLALALLIGSAPAQAADTDWGWLAIGAPAATAQGWTGKGVVIGVVDTGIDFSHPALSGRAFDYNYGSFVAGSNHPHATHVAGIIGATDINRGMEGVAPDVRFSSMKIFTGAGGSYLGDAAVADAYDGAIGSGVRIFNNSWGSSDSIANFTSREELLAHEPLLVGAFTRAVNADAVLVWSTGNDGRSQPSWQAAAPYYIQELKANWIAVTSVGENGTIASYANACGVAKAWCLAAPGGDFNPGIYSTIPGKDYGYMSGTSMAAPYVTGATAIARQMFPKASGAQLAQIVLQTSRDIGAPGIDDVYGWGLLAVDNIVDTINPRGAALFASAAWGRFTTLSAIGNTVLDRISDLRNGRGDVVTAPLAFAGQNGAFSQSGSNPRNAYAADLAAAPQPSPLGFGSVWARGLAGRATLSGSASSPQTTADISGGLLGFDLVNNQNLLVGIAGGGSNTNLTASGISDKAGAQAWHVLGYAAAMYGPAFVNVAGGWNSFDQSYQRRVIPGTAGTVFASTISAAQSSSTDVAYFFQGRGGWTFQTEVGRIEPYVHGATRNQSFGGFSETNASIFSLSVPSASLSEAEYGAGVRWACAPIKTVDQRVAVAPTIDLAYVRFTNDGPIQVETNLLGTSVVGQTAALGADAIRVAAGLSLTSLAGISGSFGYTGTVRDAATAHTVSGGLSIKF | failed
3 | KASTKLHVGNISPTCTNQELRAKFEEYGPVIECDIVKDYAFVHMERAEDAVEAIRGLDNTEFQGKRMHVQLSTSRLRTA | not failed
4 | TQNLREKQEIAKRAACDIQDHECIFLDAGSSTFELIQYIEAKDITVVTNGMTHVEELLKHGIKTLMVGGQVKPTTMATVGANALETLRRYCFDRAFIGMNGIDVKYGLTTPDEQEALIKETAMKLSNHKYVLVDQSKFNQIYFARVSILDGLSIITSQKAMQSKMTEAYMNEFNFIGGKS | failed
5 | AAGIDQYALKEFTADFTQFHIGDTVPAMYLTPEYNIKQWQQRNLPAPDAGSHWTYMGGNYVLITDTEGKILKVYDGEIFYHR | not failed
6 | MTAYWIAHVTIHDMQQYQEYMKLAPAAFQKYGAKFLARGGESVCVEGQAYQRHVIIEFPDLATAQQCYDSEEYKQARLAREGCADVMISFVEGLPTN | failed
7 | MENHSHANTHTDTRTDDKSTKIVRLLGLIGGALIALVIYYALNSQMPHIVEEIPKLSSLNYKAMPVVAGVAVLMGIWWMTEAIDLPATALLPLVLFSVFSVDQFASVSSSYASPIIFLFMGGFILALSMQKWNLHTRIALSIILLVGTSPRRLILGFMMATGFLSMWVSNTATAVMMLPVGMSVLQLVAKLVGKEDASNSWHQKEEITKAHGGIMSNIVHKGKDITQVIQEKTTIYRTNFSICLMLGIAYAASIGSLGTLIGTPPNALLAGYMKTAFNIEIDFAQWMVFGTPLAFIMLILAWLLLTYVIFPLKIKEIPGGKEVIRVELKKLGRLSQAEISVGIIFILASLGWIFLGVMLKSWGVKIDKIDSVIAMGVSALLFILPANHQGDRLIDWGVAKKLPWDVLLLFGGGLALSAQFSKTGLSLWIGHLVSGFSHLPILFIIVMVTLMVIFLTEITSNTATAAAFLPVIGGVAMGMGYENHQSLLLTIPVALSATCAFMLPVVTPPNAIAYGSGYVKITDMIKAGLWLNLVGVVLISTFSYFLVSLIFN | failed
8 | MWTRLLPFLAWLPGLHRGMLGREAWVGLNGAILALPQSMAYALIAGLPAEYGLYAAMLPVAIACLWGSSRYLVSGPTAAISVLLFSSVAPLAPLGSPQYVQAVLLLTFLAGAFQWLLGVLRVGSLVNFVSHSVMLGFTLGAALLIVLGQLPYLLGLAASGEGAAPGNGWRLLARFAEFDGPSLLVGGFSFALSLLVRRLRPRWPALLLGLLGGATLVWALPGTFASVAHVQALSSALPGWSPLVFDSRSILDLLPAAVACGMLGLVTSLSIARALAARQGDAFDANQEVRAQGLSNLLGPWLSASLSAGSFTRSGLNLEAGARSPLAGAFSALWVALLAVLGARLIEHVPLPAMAAGILLIAWGLIDRPALRALYRSGRAECLVAGLTALATLLLPLQNAIYAGVLASLVFYLRRTSTPRVLRQRNDEEEVLRIEGSIFFGACDYLQRLMRQCDRPRLVLDARQVNFIDFAGAVLLQQEARRLHAEGRRLVLRHARPQVREALGRQADEGCRLHYEG | failed
